This passage reports Kd, binding result and EC50 results from patent US20220363769A1 (SORRISO PHARMACEUTICALS, published 2022).

Numbering of substitutions follows the chain as printed. Names and notes keep the numbering of the source.

Usually Kd stands for the constant that tells how readily two partners part at equilibrium. Usually EC50 stands for the midpoint of the concentration-response curve.

Experiment [1] has as its target T1, recombinant human IL-7Rα-His6-Fc (human, UniProt P16871 21-239).
T1 construct: also called hIL-7R; not shown: His6 tag; Fc (captured by anti-human IgG Fc)
T1 chain: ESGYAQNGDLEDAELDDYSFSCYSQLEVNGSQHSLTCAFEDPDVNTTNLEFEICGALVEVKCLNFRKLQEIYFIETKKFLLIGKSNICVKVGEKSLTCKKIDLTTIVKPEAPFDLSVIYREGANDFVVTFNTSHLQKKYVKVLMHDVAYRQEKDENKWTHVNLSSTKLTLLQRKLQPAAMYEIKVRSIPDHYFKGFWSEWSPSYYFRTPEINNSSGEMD
Description: Biacore; IL-7Rα-His6-Fc captured by anti-human IgG Fc, ICVD flowed over. A general note: SPR reads the build-up and loss of mass on a sensor chip optically.

The target in the next experiment is T2, IL-9R (human, UniProt Q01113 41-270, limits assumed).
T2 sequence (looked up): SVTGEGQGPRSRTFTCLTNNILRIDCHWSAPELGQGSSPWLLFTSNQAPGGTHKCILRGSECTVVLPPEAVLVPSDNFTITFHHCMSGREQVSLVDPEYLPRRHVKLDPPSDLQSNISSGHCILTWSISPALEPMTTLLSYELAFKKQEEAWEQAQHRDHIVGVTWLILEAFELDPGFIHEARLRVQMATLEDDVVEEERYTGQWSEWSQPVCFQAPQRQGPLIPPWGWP
Description: competition ELISA: ID-A40U premixed with serially diluted soluble receptor, then added to plate-coated human IL-7Rα; bound ICVD detected [left panel]. The method, then: (§1) 96-well plates were coated with 0.5 μg/mL recombinant human IL-7Rα His₆-Fc +5 μg/mL BSA and then blocked. 0.5 nM of ICVD was mixed 1:1 with the test compounds of choice serially diluted in 1% BSA, then incubated for 30 minutes to allow binding before adding to the IL-7Rα coated plates. Following 2 hours incubation, bound ICVD was detected with 50 uL/well 1/20000 anti-FLAG-HRP Goat antibody (GeneTex, GTX21238), and the level of neutralisation of ICVD-IL-7Rα binding by the test compounds was determined.

The next experiment addresses T3, TNFR-2 (human, UniProt P20333 23-257).
T3 sequence (looked up): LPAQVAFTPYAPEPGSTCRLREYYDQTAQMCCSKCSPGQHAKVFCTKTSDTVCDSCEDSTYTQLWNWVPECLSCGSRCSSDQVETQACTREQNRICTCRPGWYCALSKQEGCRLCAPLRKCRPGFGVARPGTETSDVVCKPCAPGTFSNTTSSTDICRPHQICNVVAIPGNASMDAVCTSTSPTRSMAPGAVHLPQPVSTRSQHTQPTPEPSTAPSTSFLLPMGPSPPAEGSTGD
The experiment is described as above. The method, then:
as §1

A further experiment addresses T4, IL-6R (human, UniProt P08887 20-358, limits assumed).
T4 sequence (looked up): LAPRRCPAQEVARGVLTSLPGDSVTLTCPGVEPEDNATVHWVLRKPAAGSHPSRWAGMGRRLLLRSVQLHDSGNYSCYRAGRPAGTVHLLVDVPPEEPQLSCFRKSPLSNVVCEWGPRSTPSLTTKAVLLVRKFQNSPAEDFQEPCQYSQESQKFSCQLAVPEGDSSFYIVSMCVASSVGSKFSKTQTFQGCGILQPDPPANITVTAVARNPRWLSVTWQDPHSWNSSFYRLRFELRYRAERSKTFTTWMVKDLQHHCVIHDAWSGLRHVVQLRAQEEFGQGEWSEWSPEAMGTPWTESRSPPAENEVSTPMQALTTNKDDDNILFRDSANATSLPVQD
The experiment is described as above. The method, then: as §1

The next experiment has as its target T5, murine IL-7Rα (murine, UniProt P16872 21-239).
T5 construct: also called mouse IL-7R
T5 sequence (looked up): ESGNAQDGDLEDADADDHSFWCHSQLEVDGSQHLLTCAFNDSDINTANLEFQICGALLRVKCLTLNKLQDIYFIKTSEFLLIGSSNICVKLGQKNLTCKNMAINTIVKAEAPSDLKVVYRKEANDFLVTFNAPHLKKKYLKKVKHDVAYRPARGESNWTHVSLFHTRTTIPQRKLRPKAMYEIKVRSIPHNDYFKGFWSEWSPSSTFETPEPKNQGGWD
Description: competition ELISA: ID-A40U premixed with serially diluted soluble IL-7R, then added to plate-coated human IL-7Rα-His6-Fc; bound ICVD detected. On the procedure: as §1
(An ELISA detects its analyte on a solid surface through an enzyme-linked reagent.)

A further experiment concerns the target T6, cynomolgus monkey IL-7Rα (cynomolgus monkey, UniProt Q38IC7 21-239, limits assumed).
T6 construct: also called cynomolgus IL-7Rα
T6 sequence: T1 chain with N64S, E93G, T159M, K174N, A178E, S215P
The description is as above. On the procedure:
as §1

Experiment [2] addresses T1, recombinant human IL-7Rα-His6-Fc. Description: IL-7/IL-7Rα-His6-Fc ELISA; inhibition of IL-7 binding to IL-7R.
In the next experiment the target is T7, human IL-12Rβ1 (human, UniProt P42701 24-545, limits assumed).
T7 construct: also called hIL-12Rβ1; IL-12Rα1 (as printed in the result sentence)
Description: competition ELISA: ID-A40U premixed with serially diluted soluble receptor, then added to plate-coated human IL-7Rα; bound ICVD detected [right panel]. The method, then:
as §1

Another experiment deals with IL-21R (human, UniProt Q9HBE5 20-232, limits assumed). The experiment is described as above. On the procedure: as §1
Sequence of IL-21R (Q9HBE5 20-232 limits assumed): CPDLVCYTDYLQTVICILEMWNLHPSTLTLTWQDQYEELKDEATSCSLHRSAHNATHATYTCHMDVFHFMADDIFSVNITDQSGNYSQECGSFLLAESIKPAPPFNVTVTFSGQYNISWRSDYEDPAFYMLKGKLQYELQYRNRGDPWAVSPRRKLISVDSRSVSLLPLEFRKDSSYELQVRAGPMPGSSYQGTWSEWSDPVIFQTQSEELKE
For experiment [3], the target named is T1, recombinant human IL-7Rα-His6-Fc. Description: IL-7/IL-7R neutralisation ELISA; inhibition of IL-7 binding to IL-7R.

B1: ID-A40U (VHH)
VHH: EVQLVESGGGLVQAGGSLRLSCESSISTFSSDAMGWFRQAPGKEREFLAAIGWSGAVTHYSDSVKGRFTISRDNAKNTVYLQMNSLRAEDTGRYYCAEDYDTDVWQYWGQGTQVTVSS
notes: V7R-2E9 with Q65K, K87R, S88A; produced in E. coli; also called A40U-F/H; not shown: Flag-His6 tag
With B1, in [1], the Kd came to 0.078 nM. The binding result with IL-9R is reported as “no binding (tested: 100 ng/mL)”; with TNFR-2 it was “no binding (tested: 100 ng/mL)”; with IL-6R, “no binding (tested: 100 ng/mL)”; in the experiment with murine IL-7Rα it was “no binding (tested: 100 ng/mL)”; with cynomolgus monkey IL-7Rα, “binds”; with human IL-12Rβ1, “no binding (tested: 100 ng/mL)”. Further, the binding result with IL-21R is “no binding (tested: 100 ng/mL)”. Besides, the EC50 in experiment [2] and in experiment [3] was 0.544 nM throughout.
